Consider three molecules from publication PMC10397247.

What all share (assay): two-hybrid library CCNG1;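 note: natural log of median RNA to DNA barcode read ratio; higher means stronger binding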
In one assay the target is T1, P3mS.
T1 chain: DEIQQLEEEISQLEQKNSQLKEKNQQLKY

A further assay deals with T2, P5mS.
T2 chain: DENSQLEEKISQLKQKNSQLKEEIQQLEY

In the next assay the target is T3, P6mS.
T3 chain: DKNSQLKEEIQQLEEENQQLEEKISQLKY

Another assay has as its target T4, P7mS.
T4 chain: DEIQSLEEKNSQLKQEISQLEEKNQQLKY

In a further assay the target is T5, P8mS.
T5 chain: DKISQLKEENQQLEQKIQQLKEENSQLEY

The next assay deals with T6, P9mS.
T6 chain: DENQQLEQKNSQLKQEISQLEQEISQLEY

In a further assay the target is T7, 4H2931-bA.
T7 chain: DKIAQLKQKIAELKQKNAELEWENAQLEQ

The target of another assay is T8, 4H3041-bA.
T8 chain: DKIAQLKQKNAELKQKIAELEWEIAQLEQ

The target in a further assay is T9, 4H3297-bA.
T9 chain: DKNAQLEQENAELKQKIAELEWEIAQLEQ

Another assay concerns the target T10, 4H3364-bA.
T10 chain: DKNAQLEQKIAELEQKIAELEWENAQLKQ

Another assay addresses T11, 4H3381-bA.
T11 chain: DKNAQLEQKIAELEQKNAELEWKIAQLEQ

A further assay deals with T12, 4H3381-bH.
T12 chain: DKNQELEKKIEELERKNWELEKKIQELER

The target in another assay is T13, 4H349-bA.
T13 chain: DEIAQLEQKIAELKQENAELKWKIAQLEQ

A further assay deals with T14, 4H3497-bA.
T14 chain: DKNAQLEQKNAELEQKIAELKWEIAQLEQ

The next assay concerns the target T15, 4H56-bA.
T15 chain: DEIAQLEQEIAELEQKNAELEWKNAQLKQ

In the next assay the target is T16, 4H730-bA.
T16 chain: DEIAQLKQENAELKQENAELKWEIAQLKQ

The target of the next assay is T17, 4H796-bA.
T17 chain: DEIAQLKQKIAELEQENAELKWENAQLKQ

A further assay concerns the target T18, 4H932-bA.
T18 chain: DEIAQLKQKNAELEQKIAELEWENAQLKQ

The target of a further assay is T19, 4H949-bA.
T19 chain: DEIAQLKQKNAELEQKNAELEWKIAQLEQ

For another assay, the target named is T20, P11A.
T20 chain: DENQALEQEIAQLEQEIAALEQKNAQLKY

A further assay concerns the target T21, 4H3129-bA.
T21 chain: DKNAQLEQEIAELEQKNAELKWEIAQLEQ

For a further assay, the target named is T22, 4H3172-bA.
T22 chain: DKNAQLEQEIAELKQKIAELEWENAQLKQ

The next assay concerns the target T23, 4H3414-bA.
T23 chain: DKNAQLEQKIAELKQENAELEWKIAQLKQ

The next assay deals with T24, 4H3631-bA.
T24 chain: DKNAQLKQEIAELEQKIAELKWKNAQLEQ

In a further assay the target is T25, 4H3638-bA.
T25 chain: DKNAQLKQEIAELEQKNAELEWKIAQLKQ

Another assay has as its target T26, 4H3817-bA.
T26 chain: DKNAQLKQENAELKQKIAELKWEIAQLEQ

The target of the next assay is T27, 4H3974-bA.
T27 chain: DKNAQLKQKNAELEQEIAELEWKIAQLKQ

For the next assay, the target named is T28, 4H570-bA.
T28 chain: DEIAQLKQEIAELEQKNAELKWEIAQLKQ

The next assay concerns the target T29, 4H584-bA.
T29 chain: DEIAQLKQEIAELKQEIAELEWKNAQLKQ

For the next assay, the target named is T30, 4H619-bA.
T30 chain: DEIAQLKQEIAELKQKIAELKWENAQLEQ

A further assay addresses T31, 4H850-bA.
T31 chain: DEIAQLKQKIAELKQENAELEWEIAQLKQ

Another assay concerns the target T32, 4H906-bA.
T32 chain: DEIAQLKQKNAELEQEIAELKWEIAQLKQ

B1: P3mS (peptide)
chain: DEIQQLEEEISQLEQKNSQLKEKNQQLKY
As for B1, the interaction score with P3mS was -1.02; with P5mS it was -0.969; with P6mS, -0.88; with P7mS it was -1.59; in the assay with P8mS, -1.66; in the assay with P9mS it was -0.496.

B2: 4H2931-bA (peptide)
chain: DKIAQLKQKIAELKQKNAELEWENAQLEQ
Regarding B2, the interaction score is -0.604 with 4H2931-bA; -0.32 with 4H3041-bA; -0.644 in the assay with 4H3297-bA; -1.11 with 4H3364-bA; -1.36 in the assay with 4H3381-bA; -0.208 with 4H3381-bH. The interaction score with 4H349-bA is -1.08; with 4H3497-bA it was -1.04; with 4H56-bA it was 0.684; with 4H730-bA it was -1.14; with 4H796-bA it was -0.693; with 4H932-bA, -1.36. Further, the interaction score with 4H949-bA is -1.37; with P11A, 1.31.

B3: 4H3129-bA (peptide)
chain: DKNAQLEQEIAELEQKNAELKWEIAQLEQ
For the molecule B3, the interaction score with 4H3129-bA is -0.78; with 4H3172-bA, -1.38; with 4H3414-bA, 2.61; with 4H3631-bA, -0.762; with 4H3638-bA it was 0; in the assay with 4H3817-bA it was -0.661. Further, the interaction score with 4H3974-bA is -0.932; with 4H570-bA it was -1.13; with 4H584-bA it was -1.75; in the assay with 4H619-bA, -1.59; with 4H850-bA, 0.0228; with 4H906-bA it was -0.839. In addition, the interaction score with P11A was 0.0953.
